Source: publication PMC3642155

Biological target: T7 RNA polymerase (UniProt P00573 1-883)
Assay: filter binding

Sequence of T7 RNA polymerase (P00573 whole entry): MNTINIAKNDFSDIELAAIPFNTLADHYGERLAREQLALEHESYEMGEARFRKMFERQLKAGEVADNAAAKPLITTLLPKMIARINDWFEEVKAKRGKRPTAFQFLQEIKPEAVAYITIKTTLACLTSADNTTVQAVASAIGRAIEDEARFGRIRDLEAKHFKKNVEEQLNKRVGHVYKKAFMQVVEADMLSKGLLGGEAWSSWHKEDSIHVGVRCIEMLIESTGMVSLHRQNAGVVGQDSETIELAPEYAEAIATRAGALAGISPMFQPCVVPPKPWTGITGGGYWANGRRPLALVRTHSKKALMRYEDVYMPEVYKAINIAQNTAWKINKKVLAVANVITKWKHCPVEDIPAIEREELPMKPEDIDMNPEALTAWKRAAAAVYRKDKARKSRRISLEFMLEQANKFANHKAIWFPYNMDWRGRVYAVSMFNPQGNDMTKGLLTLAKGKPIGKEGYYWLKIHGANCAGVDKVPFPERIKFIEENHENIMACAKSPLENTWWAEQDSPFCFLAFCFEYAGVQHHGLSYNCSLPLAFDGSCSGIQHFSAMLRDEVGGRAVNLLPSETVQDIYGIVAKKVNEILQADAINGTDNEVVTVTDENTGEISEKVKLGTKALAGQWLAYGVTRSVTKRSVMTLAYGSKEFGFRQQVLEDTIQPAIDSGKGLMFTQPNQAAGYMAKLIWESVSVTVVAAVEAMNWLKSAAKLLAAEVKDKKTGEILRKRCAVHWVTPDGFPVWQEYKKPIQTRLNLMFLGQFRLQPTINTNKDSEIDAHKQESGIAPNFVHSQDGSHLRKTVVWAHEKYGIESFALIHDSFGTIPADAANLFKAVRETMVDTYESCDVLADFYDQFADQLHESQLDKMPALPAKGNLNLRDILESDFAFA

Binder | Kd [nM]
GUGUAGUGUAAGUCAAUUCUACUUUCGUUGCAGCCCAC (structured_RNA) [T06-38] | 10.5 ± 2.1
T06 (structured_RNA) RNA: GAGGAUGGCAGCGGAGAGGAAUGGUGUAGUGUAAGUCAAUUCUACUUUCGUUGCAGCCCACACCACUCUCC | 8 ± 2.4
GCGUAAGUCAAUUCCACUAUCAUUGCUGC (structured_RNA) [T230-29] | 2.9 ± 0.9
